Data published in IntAct's records for PubMed 25910212.

B1: Emerin (Homo sapiens), P50402 (parent)
chain: MDNYADLSDTELTTLLRRYNIPHGPVVGSTRRLYEKKIFEYETQRRRLSPPSSSAASSYSFSDLNSTRGDADMYDLPKKEDALLYQSKGYNDDYYEESYFTTRTYGEPESAGPSRAVRQSVTSFPDADAFHHQVHDDDLLSSSEEECKDRERPMYGRDSAYQSITHYRPVSASRSSLDLSYYPTSSSTSFMSSSSSSSSWLTRRAIRPENRAPGAGLGQDRQVPLWGQLLLFLVFVIVLFFIYHFMQAEEGNPF
partner: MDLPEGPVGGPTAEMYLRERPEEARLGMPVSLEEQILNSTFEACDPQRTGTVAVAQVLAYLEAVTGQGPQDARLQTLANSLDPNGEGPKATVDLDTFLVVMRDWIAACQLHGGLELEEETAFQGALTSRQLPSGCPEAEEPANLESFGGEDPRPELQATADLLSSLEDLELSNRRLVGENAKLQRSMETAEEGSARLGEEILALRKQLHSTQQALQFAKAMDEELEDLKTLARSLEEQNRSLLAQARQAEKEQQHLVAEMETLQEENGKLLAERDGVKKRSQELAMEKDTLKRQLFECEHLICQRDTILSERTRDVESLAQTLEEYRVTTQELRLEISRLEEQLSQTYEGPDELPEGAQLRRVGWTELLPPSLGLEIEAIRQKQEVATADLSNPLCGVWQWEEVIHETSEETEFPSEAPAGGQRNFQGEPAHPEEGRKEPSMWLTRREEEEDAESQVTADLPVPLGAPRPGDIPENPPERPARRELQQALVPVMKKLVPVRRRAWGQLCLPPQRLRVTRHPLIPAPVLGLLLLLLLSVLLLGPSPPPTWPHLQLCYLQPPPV
B2: Beta-crystallin A4 (Homo sapiens), P53673 (parent)
chain: MTLQCTKSAGPWKMVVWDEDGFQGRRHEFTAECPSVLELGFETVRSLKVLSGAWVGFEHAGFQGQQYILERGEYPSWDAWGGNTAYPAERLTSFRPAACANHRDSRLTIFEQENFLGKKGELSDDYPSLQAMGWEGNEVGSFHVHSGAWVCSQFPGYRGFQYVLECDHHSGDYKHFREWGSHAPTFQVQSIRRIQQ
partner: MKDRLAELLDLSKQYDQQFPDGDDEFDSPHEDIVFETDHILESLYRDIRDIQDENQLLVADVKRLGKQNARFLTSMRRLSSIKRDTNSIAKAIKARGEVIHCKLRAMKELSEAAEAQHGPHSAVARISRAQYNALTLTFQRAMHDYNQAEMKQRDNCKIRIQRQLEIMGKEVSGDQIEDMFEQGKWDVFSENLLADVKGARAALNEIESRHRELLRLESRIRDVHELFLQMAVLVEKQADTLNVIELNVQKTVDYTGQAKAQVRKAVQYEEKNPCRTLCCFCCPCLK
B3: Emerin (Homo sapiens), P50402 (parent)
chain: B1 chain
partner: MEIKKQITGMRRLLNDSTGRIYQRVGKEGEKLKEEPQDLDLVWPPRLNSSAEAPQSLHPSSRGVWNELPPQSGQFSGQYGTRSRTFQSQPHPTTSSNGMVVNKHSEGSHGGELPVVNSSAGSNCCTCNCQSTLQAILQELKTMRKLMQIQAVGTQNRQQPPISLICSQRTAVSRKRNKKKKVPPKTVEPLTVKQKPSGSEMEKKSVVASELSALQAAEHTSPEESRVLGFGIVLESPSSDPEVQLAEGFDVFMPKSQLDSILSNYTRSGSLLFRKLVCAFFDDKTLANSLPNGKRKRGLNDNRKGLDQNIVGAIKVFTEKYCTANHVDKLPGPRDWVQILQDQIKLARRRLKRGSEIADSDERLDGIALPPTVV
B4: U4/U6 small nuclear ribonucleoprotein Prp31 (Homo sapiens), Q8WWY3 (parent)
chain: MSLADELLADLEEAAEEEEGGSYGEEEEEPAIEDVQEETQLDLSGDSVKTIAKLWDSKMFAEIMMKIEEYISKQAKASEVMGPVEAAPEYRVIVDANNLTVEIENELNIIHKFIRDKYSKRFPELESLVPNALDYIRTVKELGNSLDKCKNNENLQQILTNATIMVVSVTASTTQGQQLSEEELERLEEACDMALELNASKHRIYEYVESRMSFIAPNLSIIIGASTAAKIMGVAGGLTNLSKMPACNIMLLGAQRKTLSGFSSTSVLPHTGYIYHSDIVQSLPPDLRRKAARLVAAKCTLAARVDSFHESTEGKVGYELKDEIERKFDKWQEPPPVKQVKPLPAPLDGQRKKRGGRRYRKMKERLGLTEIRKQANRMSFGEIEEDAYQEDLGFSLGHLGKSGSGRVRQTQVNEATKARISKTLQRTLQKQSVVYGGKSTIRDRSSGTASSVAFTPLQGLEIVNPQAAEKKVAEANQKYFSSMAEFLKVKGEKSGLMST
partner: B2 partner
B5: Peripheral myelin protein 22 (Homo sapiens), Q01453 (parent)
chain: MLLLLLSIIVLHVAVLVLLFVSTIVSQWIVGNGHATDLWQNCSTSSSGNVHHCFSSSPNEWLQSVQATMILSIIFSILSLFLFFCQLFTLTKGGRFYITGIFQILAGLCVMSAAAIYTVRHPEWHLNSDYSYGFAYILAWVAFPLALLSGVIYVILRKRE
partner: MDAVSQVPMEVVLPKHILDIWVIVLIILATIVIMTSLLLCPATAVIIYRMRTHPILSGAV
B6: Adiponectin (Homo sapiens), Q15848 (parent)
chain: MLLLGAVLLLLALPGHDQETTTQGPGVLLPLPKGACTGWMAGIPGHPGHNGAPGRDGRDGTPGEKGEKGDPGLIGPKGDIGETGVPGAEGPRGFPGIQGRKGEPGEGAYVYRSAFSVGLETYVTIPNMPIRFTKIFYNQQNHYDGSTGKFHCNIPGLYYFAYHITVYMKDVKVSLFKKDKAMLFTYDQYQENNVDQASGSVLLHLEVGDQVWLQVYGEGERNGLYADNDNDSTFTGFLLYHDTN
partner: B1 partner

Variants of: B1
Details: with kash5_human KASH5, Q8N6L0
For MDNYADLSDTELTTLLRRYNIPHGPVVGSTRRLYEKKIFEYETQRRRLSPPSSSAASSYSFSDLNSTRGDADMYDLPKKEDALLYQSKGYNDDYYEESYFTTRTYGEPESAGPSRAVRQSVTSFPDADAFHHQVHDDDLLSSSEEECKDRERPMYGRDSAYQSITHYRPVSASRSSLDLSYYTTSSSTSFMSSSSSSSSWLTRRAIRPENRAPGAGLGQDRQVPLWGQLLLFLVFVIVLFFIYHFMQAEEGNPF [P183T], the “effect of a mutation on the interaction” value was “with no effect”. In the case of MDNYADLSDTELTTLLRRYNIPHGPVVGSTRRLYEKKIFEYETQRRRLSPPSSSAASSYSFSDLNSTRGDADMYDLPKKEDALLYQSKGYNDDYYEESYFTTRTYGEPESAGPSRAVRQSVTSFPDADAFHHQVHDDDLLSSSEEECKDRERPMYGRDSAYQSITHYRPVSASRSSLDLSYYHTSSSTSFMSSSSSSSSWLTRRAIRPENRAPGAGLGQDRQVPLWGQLLLFLVFVIVLFFIYHFMQAEEGNPF [P183H], the “effect of a mutation on the interaction” value is reported as “with no effect”.

Variants of: B2
Details: with stx11_human STX11, O75558
With MTLQCTKSAGPWKMVVWDEDGFQGRRHEFTAECPSVLELGFETVRSLKVLSGAWVGFEHAGFQGQQYIPERGEYPSWDAWGGNTAYPAERLTSFRPAACANHRDSRLTIFEQENFLGKKGELSDDYPSLQAMGWEGNEVGSFHVHSGAWVCSQFPGYRGFQYVLECDHHSGDYKHFREWGSHAPTFQVQSIRRIQQ the “effect of a mutation on the interaction” value was “disrupting interaction strength”. MTLQCTKSAGPWKMVVWDEDGFQGRRHEFTAECPSVLELGFETVRSLKVLSGAWVGFEHAGFQGQQYILERGEYPSWDAWGGNTAYPAERLTSSRPAACANHRDSRLTIFEQENFLGKKGELSDDYPSLQAMGWEGNEVGSFHVHSGAWVCSQFPGYRGFQYVLECDHHSGDYKHFREWGSHAPTFQVQSIRRIQQ was tested, and the “effect of a mutation on the interaction” value was “disrupting interaction strength”. MTLQCTKSAGPWKMVVWDEDGFQGRRHEFTAECPSMLELGFETVRSLKVLSGAWVGFEHAGFQGQQYILERGEYPSWDAWGGNTAYPAERLTSFRPAACANHRDSRLTIFEQENFLGKKGELSDDYPSLQAMGWEGNEVGSFHVHSGAWVCSQFPGYRGFQYVLECDHHSGDYKHFREWGSHAPTFQVQSIRRIQQ was tested, and the “effect of a mutation on the interaction” value was “disrupting interaction strength”.

Variants of: B3
Details: with BEND7, Q8N7W2-2
In the case of MDNYADLSDTELTTLLRRYNIPHGPVVGSTRRLYEKKIFEYETQRRRLSPPSSSAASSYSFSDLNSTRGDAVMYDLPKKEDALLYQSKGYNDDYYEESYFTTRTYGEPESAGPSRAVRQSVTSFPDADAFHHQVHDDDLLSSSEEECKDRERPMYGRDSAYQSITHYRPVSASRSSLDLSYYPTSSSTSFMSSSSSSSSWLTRRAIRPENRAPGAGLGQDRQVPLWGQLLLFLVFVIVLFFIYHFMQAEEGNPF [D72V], the “effect of a mutation on the interaction” value is reported as “with no effect”. MDNYADLSDTELTTLLRRYNIPHGPVVGSTRRLYEKKIFEYETQRRRLSPPSSSAASSYSFSDLNSTRGDADMYDLPKKEDALLYQSKGYNDDYYEESYFTTRTYGEPESAGPSRAVRQSVTSFPDADAFHHQVHDDDLLSSSEEECKDRERPMYGRDSAYQSITHYRPVSASRSSLDLSYYTTSSSTSFMSSSSSSSSWLTRRAIRPENRAPGAGLGQDRQVPLWGQLLLFLVFVIVLFFIYHFMQAEEGNPF [P183T] was tested, and the “effect of a mutation on the interaction” value was “with no effect”. With MDNYADLSDTELTTLLRRYNIPHGPVVGSTRRLYEKKIFEYETQRRRLSPPSSSAASSYSFSDLNSTRGDADMYDLPKKEDALLYQSKGYNDDYYEESYFTTRTYGEPESAGPSRAVRQSVTSFPDADAFHHQVHDDDLLSSSEEECKDRERPMYGRDSAYQSITHYRPVSASRSSLDLSYYHTSSSTSFMSSSSSSSSWLTRRAIRPENRAPGAGLGQDRQVPLWGQLLLFLVFVIVLFFIYHFMQAEEGNPF [P183H] the “effect of a mutation on the interaction” value was “with no effect”. In the case of MDNYADLSDTELTTLLRRYNIPHGPVVGSTRRLYEKKIFEYETQRRRLSPPSSFAASSYSFSDLNSTRGDADMYDLPKKEDALLYQSKGYNDDYYEESYFTTRTYGEPESAGPSRAVRQSVTSFPDADAFHHQVHDDDLLSSSEEECKDRERPMYGRDSAYQSITHYRPVSASRSSLDLSYYPTSSSTSFMSSSSSSSSWLTRRAIRPENRAPGAGLGQDRQVPLWGQLLLFLVFVIVLFFIYHFMQAEEGNPF [S54F], the “effect of a mutation on the interaction” value is reported as “with no effect”.

Variants of: B4
Details: with stx11_human STX11, O75558
MSLADELLADLEEAAEEEEGGSYGEEEEEPAIEDVQEETQLDLSGDSVKTIAKLWDSKMFAEIMMKIEEYISKQAKASEVMGPVEAAPEYRVIVDANNLTVEIENEVNIIHKFIRDKYSKRFPELESLVPNALDYIRTVKELGNSLDKCKNNENLQQILTNATIMVVSVTASTTQGQQLSEEELERLEEACDMALELNASKHRIYEYVESRMSFIAPNLSIIIGASTAAKIMGVAGGLTNLSKMPACNIMLLGAQRKTLSGFSSTSVLPHTGYIYHSDIVQSLPPDLRRKAARLVAAKCTLAARVDSFHESTEGKVGYELKDEIERKFDKWQEPPPVKQVKPLPAPLDGQRKKRGGRRYRKMKERLGLTEIRKQANRMSFGEIEEDAYQEDLGFSLGHLGKSGSGRVRQTQVNEATKARISKTLQRTLQKQSVVYGGKSTIRDRSSGTASSVAFTPLQGLEIVNPQAAEKKVAEANQKYFSSMAEFLKVKGEKSGLMST [L107V] was tested, and the “effect of a mutation on the interaction” value was “with no effect”.

Variants of: B5
Details: with smim3_human SMIM3, Q9BZL3
MLLLLLSIIVLHVAVLVLLFVSTIVSQWIVGNGHATDLWQNCSTSSSGNVHHCFSSSPNEWLQSVQATMILSIIFSILSLFLFFCQLFTLTKGGRFYITGIFQILAGLCVMSAAAIYTVRHPEWHLNSDYSYGFAYILAWVAFPLALLSGVIYVILGKRE was tested, and the “effect of a mutation on the interaction” value was “disrupting interaction strength”.

Variants of: B6
Details: with kash5_human KASH5, Q8N6L0
With I164T the “effect of a mutation on the interaction” value was “with no effect”. With Y111H the “effect of a mutation on the interaction” value was “with no effect”.
